Measured values as given in patent US20100015126A1, “Methods of Binding of Cross-Beta Structures By Chaperones” (priority 2006, published 2010).

Experiments:
HUVECs = experiment: Adhesion of HUVECs to immobilized misfolded proteins under influence of BiP (LDH read-out); format: cell-based, human; conditions: BiP approximately 200 μg/ml
Description: HUVECs are primary endothelial cells (ECs), isolated from umbilical cords using 0.1% collagenase (Sigma, C0130, 100 mg, dissolved in 100 ml M199 medium supplemented with 10% FCS (Gibco 10106-169) and Penicillin-Streptomycin (P/S, Gibco, 15140-122)), according to widespread used standard procedures known to a person skilled in the art. HUVECs have the typical features of ECs, e.g. cobblestone morphology and von Willebrand factor storage in Weibel-Palade bodies. HUVECs can regularly be cultured up to passage 5; beyond passage 5 HUVECs loose typical EC markers. The isolation is described here in brief. The umbilical cord is washed for less than 3 minutes in ethanol and subsequently with PBS. The vein is connected to canules and flushed with 10 ml PBS, followed by loading with the 0.1% collagenase solution. After a 15 minute-incubation at 37° C., the detached endothelial cell suspension is recovered by flushing the vein with 10 ml medium which is subsequently added to the collagenase solution. The EC suspension is centrifuged for 5 minutes at room temperature, at low g-force. Supernatant is discarded and the cell pellet is resuspended in 5 ml ‘rich medium’ (EGM-2; Endothelial basal medium (EBM-2, Cambrex, CC-3156) and Singlequots containing supplements for endothelial cells (Cambrex, CC-4176)). Cells (passage 0, P0) are seeded in a culture flask coated with 0.5% gelatin (Sigma, G1393). To facilitate the adhesion of the endothelial cells, human fibronectin is added to the cell culture at a final concentration of 2 μg/ml. EC's are cultured at 37° C., at 5% CO2. The cell culture medium is refreshed every 2-3 days up to when the cells grow to confluency. Then, with the addition of trypsin-EDTA, the cells are detached from the flask, centrifuged at low g-force, resuspended in rich medium and seeded in larger 0.5% gelatin-precoated cell culture flasks.
In 96-wells plates (Immulon high-binding plates, Thermo Labsystems 3355) proteins, i.e. BSA-AGE, control BSA, IgIV Gammagard, crossbeta dIgIV-86 at 5 μg/ml, 10 μg/ml misfolded oxLDL, or gelatin (Sigma G1393, 2% solution in H2O or PBS, positive control for adhesion to ECs) were coated using 100 μl solutions, in six wells for each condition. Following incubation for 2 hours at 37° C. the solutions were discarded and the wells blocked for 1 hour at 37° C. with 100 μl/well of 1% polyvinyl-pyrrolidone (PVP, Sigma P5288) in PBS, filter (0.22 μm) sterilized. […] Subsequently, the block solution was discarded. Next, the plates were incubated with 40 μl RPMI 1640 medium (Gibco, 52400) and 10 μl of the potential inhibitor, i.e. recombinant human BiP at approximately 200 μg/ml final concentration. HUVECs were obtained by trypsinization. […] The absorbance at 490 nm was measured on a Versamax microplate reader at various time points.

human BiP = target: T1, human BiP (Homo sapiens, UniProt P11021); experiment: ELISA: binding of BiP-FLAG-His to immobilized (misfolded) protein ligands; conditions: ligands coated at 5 μg/ml; 6BB peptides and oxLDL 50 μg/ml
T1 construct: The human BiP gene except the signal peptide encoding region was obtained from Geneart (Germany); linker […]; made in house; host or cells: HEK 293E cells, transient transfection, PABC674 vector; secreted into the medium
T1 sequence (P11021 19-654): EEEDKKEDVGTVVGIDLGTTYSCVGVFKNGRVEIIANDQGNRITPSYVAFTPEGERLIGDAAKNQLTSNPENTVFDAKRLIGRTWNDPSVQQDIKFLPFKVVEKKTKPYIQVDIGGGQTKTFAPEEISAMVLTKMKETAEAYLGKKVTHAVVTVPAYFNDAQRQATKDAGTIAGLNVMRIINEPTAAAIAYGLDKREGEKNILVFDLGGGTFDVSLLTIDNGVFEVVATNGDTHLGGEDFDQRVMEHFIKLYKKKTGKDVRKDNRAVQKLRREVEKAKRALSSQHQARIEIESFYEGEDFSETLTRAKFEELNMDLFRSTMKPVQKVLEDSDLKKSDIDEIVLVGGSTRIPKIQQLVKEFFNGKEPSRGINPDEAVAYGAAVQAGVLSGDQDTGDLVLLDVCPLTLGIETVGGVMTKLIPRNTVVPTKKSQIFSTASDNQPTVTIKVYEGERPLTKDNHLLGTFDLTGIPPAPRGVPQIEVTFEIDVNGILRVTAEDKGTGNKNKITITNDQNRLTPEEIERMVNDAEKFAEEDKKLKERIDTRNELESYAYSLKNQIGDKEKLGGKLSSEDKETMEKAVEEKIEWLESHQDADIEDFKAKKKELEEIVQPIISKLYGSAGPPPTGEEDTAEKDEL
Outline: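 Ligands were coated at 5 μg/ml (50 μg/ml for 6BB# peptides and oxLDL) in 50 mM NaHCO3 pH 9.6, blocked, then incubated in triplicate with BiP-FLAG-His dilution series for 1 h at room temperature. Bound BiP was detected with peroxidase anti-FLAG M2 and TMB, stopped after 5 min and read at 450 nm. Buffer-only and chaperone-omitted background signals were subtracted.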

factor XII in plasma = target: T2, factor XII in plasma (Homo sapiens, UniProt P00748); experiment: Factor XII activation assay (direct, substrate S-2222); format: biochemical; conditions: chromogenic substrate S-2222
T2 construct: from tissue; host or cells: plasma
T2 sequence (P00748 20-615): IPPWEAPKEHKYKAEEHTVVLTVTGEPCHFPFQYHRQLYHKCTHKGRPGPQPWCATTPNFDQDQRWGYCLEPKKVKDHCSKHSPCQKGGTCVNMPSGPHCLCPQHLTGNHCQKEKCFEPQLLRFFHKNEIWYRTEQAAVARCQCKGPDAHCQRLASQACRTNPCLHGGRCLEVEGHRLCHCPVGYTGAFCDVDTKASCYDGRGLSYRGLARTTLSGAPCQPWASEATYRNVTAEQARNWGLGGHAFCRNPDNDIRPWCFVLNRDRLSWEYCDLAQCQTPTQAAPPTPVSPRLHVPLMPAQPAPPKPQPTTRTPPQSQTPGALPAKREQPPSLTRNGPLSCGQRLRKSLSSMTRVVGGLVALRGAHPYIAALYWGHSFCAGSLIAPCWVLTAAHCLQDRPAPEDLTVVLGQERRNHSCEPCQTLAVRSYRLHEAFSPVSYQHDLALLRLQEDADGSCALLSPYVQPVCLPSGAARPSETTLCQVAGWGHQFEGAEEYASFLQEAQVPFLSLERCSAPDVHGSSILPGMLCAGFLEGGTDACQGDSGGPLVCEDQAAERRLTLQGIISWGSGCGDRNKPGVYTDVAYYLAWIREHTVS
Description: Alternatively, activation of factor XII was assessed directly by omitting prekallikrein and using a factor XII chromogenic substrate, S-2222 (Chromogenix, Italy).

Substance | Number of adhered HUVECs after preincubation of coated protein with BiP (HUVECs) | Binding of concentration series of BiP to coated ligand (human BiP) | Activation of factor XII in plasma (conversion of S-2222) (factor XII in plasma)
gelatin | hardly increase | – | –
KRLEVDIDIKIRS [FP13, synthetic fibrin fragment comprising crossbeta structure] | – | has been established | stimulates the conversion of S-2222
